Test results as given in article PMC11847324, “A communication hub for phosphoregulation of kinetochore-microtubule attachment” (Current biology : CB, 2024).
No end group written: not given here. *: point of attachment. BODIPYFLEthylmaleimide = Cc1cc(C)n2c1C=C1C=CC(CCC(=O)NCCN3C(=O)CC(*)C3=O)=[N+]1[B-]2(F)F

Experiments:
Ndc80c^dwarf [1] = assay: Fluorescence polarization competition, reporter Bodipy-FL Mps1(137–171); type: binding, S. cerevisiae; conditions: direct titration (Figure 3A) and competition with Bodipy-FL Mps1(137–171) (Figure 3B)
Excerpt: We measured by fluorescence polarization the affinity of Ndc80^dwarf, a shortened version of Ndc80c[51], for a peptide comprising Mps1 residues 137–171, plus a C-terminal cysteine for labeling. We labeled the peptide with the Bodipy fluorophore and determined fluorescence anisotropy as a function of Ndc80c^dwarf concentration (Figure 3A). We then used unlabeled wild-type and mutant peptides in a competition format, at a fixed Ndc80c^dwarf concentration (Figures 3B,C). The mutant peptides corresponded to mutations characterized in one of the accompanying papers. […] Mutating either the basic residues or the hydrophobic residues in the first part of the consensus motif or the conserved arginine at the end of the second part lowered affinity (raised the Ki) by roughly two logs; mutating both the final arginine and the hydrophobic residues eliminated any detectable competition.
Figure 3. Fluorescence polarization measurements of Ndc80c^dwarf binding peptides from the N-terminal extensions of Mps1 and Ipl1. (A) Polarization of fluorescence from 20 nM Bodipy-FL Mps1(137–171) (Mps1 residues 137–171 plus a C-terminal cysteine modified with Bodipy-FL -- see Methods) and Bodipy-FL Ipl1 (26–39;45–59) as a function of Ndc80c^dwarf concentration. (B) Competition binding experiment: unlabeled competitor peptides (see figure annotation) were added in twofold serial dilutions to Bodipy-FL Mps1(137–171) and Ndc80c^dwarf at final concentrations of 20 nM and 500 nM respectively. Loss of polarization indicates displacement of bound Bodipy-FL Mps1(137–171) by the competitor. (C) As in (B), with competitor Mps1(137–171) peptides containing mutations that reduce affinity for Ndc80c[40]. (D) Polarization of fluorescence from 20 nM Bodipy-FL Mps1(137–171) as a function of the concentration of Ndc80c^dwarf bearing mutations in Nuf2 that interfere with its Mps1 interaction in cells. (E) As in (B), but with 20 nM Bodipy-FL Ipl1 (26–39;45–59) as the fluorescent reporter and 27μM Ndc80c^dwarf. […] For the Ipl1 peptide, the second copy of the motif, not used for the fluorescence polarization experiments, is shown in the bottom line.
Mps1 (137–171), Ipl1 (26–39;45–59), and Dam1 (254–270;290–305) peptides with added C-terminal cysteines, were synthesized by the Tufts University Core Facility. […] Fluorescence polarization was measured at 25°C with an Envision plate reader (Perkin Elmer) equipped with a filter set optimized for fluorescence polarization of FITC, which has the same absorption and emission spectra as those of Bodipy FL. […] Fluorescence polarization was measured in triplicate. […] An equal volume of a buffer-matched solution containing 40 nM Bodipy-FL labelled peptide and 1 μM Ndc80c^dwarf was added to each of the dilutions, and fluorescence polarization was measured in triplicate. […]

[2] = target: Bodipy-FL Mps1(137–171) (S. cerevisiae); assay: fluorescence polarisation; direct titration: 2-fold serial dilutions of Ndc80c^dwarf (from 860 uM stock) added to 20 nM (final) Bodipy-FL peptide; 20 mM Hepes pH 7.2, 150 mM NaCl, 2 mM TCEP; 25 °C; triplicate
Ipl1 = target: T1, Ipl1 (Saccharomyces cerevisiae (strain ATCC …, UniProt P38991)); assay: FP direct, Bodipy peptide, Ndc80c dwarf
T1 chain: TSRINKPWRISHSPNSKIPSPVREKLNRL

Mps1 = target: T2, Mps1 (Saccharomyces cerevisiae (strain ATCC …, UniProt P54199)); assay: FP direct, Bodipy peptide, Ndc80c dwarf
T2 chain: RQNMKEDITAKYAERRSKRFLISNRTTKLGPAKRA

Bodipy-FL Mps1(137–171) = target: T3, Bodipy-FL Mps1(137–171); assay: fluorescence polarization; conditions: chain shown with the change; 20 nM Bodipy-FL Mps1(137–171); Ndc80c^dwarf mutant titrated
T3 chain: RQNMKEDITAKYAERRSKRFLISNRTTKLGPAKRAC

Ndc80c^dwarf [3] = target: T4, Ndc80c^dwarf (S. cerevisiae, UniProt P40460 1-691; Q04477 1-213; P40014 1-221); assay: fluorescence polarisation; competition: 2-fold serial dilutions of unlabeled peptide (2 mM stock) mixed with an equal volume giving 20 nM Bodipy-FL Mps1(137–171) and 500 nM Ndc80c^dwarf; 20 mM Tris pH 7.2, 100 mM NaCl, 2 mM TCEP; 25 °C; triplicate
T4 chain 1: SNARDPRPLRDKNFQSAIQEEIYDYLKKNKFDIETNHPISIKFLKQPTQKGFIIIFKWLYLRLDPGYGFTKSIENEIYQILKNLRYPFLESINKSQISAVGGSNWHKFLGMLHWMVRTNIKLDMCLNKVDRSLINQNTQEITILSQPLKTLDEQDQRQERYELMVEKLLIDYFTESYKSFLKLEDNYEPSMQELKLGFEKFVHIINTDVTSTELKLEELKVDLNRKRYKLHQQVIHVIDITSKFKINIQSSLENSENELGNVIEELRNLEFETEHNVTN
T4 chain 2: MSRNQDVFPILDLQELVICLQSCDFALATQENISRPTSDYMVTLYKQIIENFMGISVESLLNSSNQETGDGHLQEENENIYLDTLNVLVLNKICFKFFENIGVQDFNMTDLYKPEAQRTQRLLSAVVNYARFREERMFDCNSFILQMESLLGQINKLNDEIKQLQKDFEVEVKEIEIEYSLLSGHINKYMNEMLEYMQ
T4 chain 3: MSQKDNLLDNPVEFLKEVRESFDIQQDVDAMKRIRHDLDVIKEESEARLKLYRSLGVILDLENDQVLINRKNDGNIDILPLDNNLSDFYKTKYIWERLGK
T4 chain 4: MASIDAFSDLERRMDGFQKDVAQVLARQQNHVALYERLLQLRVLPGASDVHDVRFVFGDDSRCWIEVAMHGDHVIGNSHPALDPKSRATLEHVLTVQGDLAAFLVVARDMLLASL

[4] = target: T5, Ndc80c^dwarf, P40460;Q04477;P40014; assay: fluorescence polarization competition; conditions: chain shown with the change; point at the highest competitor concentration (about 1e3 µM); 20 nM Bodipy-FL Mps1(137–171), 500 nM Ndc80c^dwarf; lower polarization = more displacement of the …; parent: est. 41; read off a plot
T5 chain 1: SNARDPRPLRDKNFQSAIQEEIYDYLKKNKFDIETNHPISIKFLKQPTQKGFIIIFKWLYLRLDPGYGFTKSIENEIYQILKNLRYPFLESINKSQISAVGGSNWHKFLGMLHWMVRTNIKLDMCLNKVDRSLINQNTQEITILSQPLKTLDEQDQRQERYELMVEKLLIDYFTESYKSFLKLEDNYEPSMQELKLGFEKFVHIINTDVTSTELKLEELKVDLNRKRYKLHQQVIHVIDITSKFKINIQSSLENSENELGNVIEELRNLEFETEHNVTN
T5 chain 2: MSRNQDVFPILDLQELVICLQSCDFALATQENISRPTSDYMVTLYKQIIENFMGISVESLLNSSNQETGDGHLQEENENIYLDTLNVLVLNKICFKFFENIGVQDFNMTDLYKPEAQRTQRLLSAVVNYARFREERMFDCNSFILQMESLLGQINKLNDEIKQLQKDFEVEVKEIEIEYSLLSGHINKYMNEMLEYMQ
T5 chain 3: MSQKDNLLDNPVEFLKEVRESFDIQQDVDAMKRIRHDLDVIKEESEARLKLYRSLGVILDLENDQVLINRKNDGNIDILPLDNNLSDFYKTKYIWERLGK
T5 chain 4: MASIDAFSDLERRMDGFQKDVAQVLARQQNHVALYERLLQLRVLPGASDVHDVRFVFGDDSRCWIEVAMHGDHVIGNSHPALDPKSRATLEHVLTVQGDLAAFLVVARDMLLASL

Ndc80c^dwarf [5] = target: T4, Ndc80c^dwarf; assay: FP

TSRINKPWRISHSPNSKIPSPVREKLNRLC [Ipl1 (26–39;45–59)]
relative affinity of peptides for Ndc80c^dwarf (comparison in words) (Ndc80c^dwarf [1]): bound more weakly than those from Dam1 and Mps1

RRKSILHTIRNSIASGARISLGSGAARVVNGPVTC [Dam1 (254–270;290–305)]
relative affinity of peptides for Ndc80c^dwarf (comparison in words) (Ndc80c^dwarf [1]): nearly the same

Ndc80c^dwarf bearing the Nuf2 F8A P9A mutations (from UniProt P40460 1-691; Q04477 1-213; P40014 1-221) (complex)
loss of affinity against wild-type Ndc80c^dwarf (logs) [2]: 2 logs

Ndc80c^dwarf bearing the Nuf2 N128A mutation (from UniProt P40460 1-691; Q04477 1-213; P40014 1-221) (complex)
loss of affinity against wild-type Ndc80c^dwarf (logs) [2]: 2 logs

B1: Ndc80-Nuf2 (protein)
chain 1: MSRNQDVFPILDLQELVICLQSCDFALATQENISRPTSDYMVTLYKQIIENFMGISVESLLNSSNQETGDGHLQEENENIYLDTLNVLVLNKICFKFFENIGVQDFNMTDLYKPEAQRTQRLLSAVVNYARFREERMFDCNSFILQMESLLGQ
chain 2: RDPRPLRDKNFQSAIQEEIYDYLKKNKFDIETNHPISIKFLKQPTQKGFIIIFKWLYLRLDPGYGFTKSIENEIYQILKNLRYPFLESINKSQISAVGGSNWHKFLGMLHWMVRTNIKLDMCLNKVDRSLINQNTQEITILSQPLKTLDEQDQRQERYELMVEKLLIDYFTESYKSFLKLEDNYEPSMQELKLGFEKFVHIINTD
Kd (Ipl1): 18.8 µM | Kd (Mps1): 0.28 µM

B2: Ndc80c^dwarf, P40460;Q04477;P40014 Nuf2:N128A (protein)
chain 1: SNARDPRPLRDKNFQSAIQEEIYDYLKKNKFDIETNHPISIKFLKQPTQKGFIIIFKWLYLRLDPGYGFTKSIENEIYQILKNLRYPFLESINKSQISAVGGSNWHKFLGMLHWMVRTNIKLDMCLNKVDRSLINQNTQEITILSQPLKTLDEQDQRQERYELMVEKLLIDYFTESYKSFLKLEDNYEPSMQELKLGFEKFVHIINTDVTSTELKLEELKVDLNRKRYKLHQQVIHVIDITSKFKINIQSSLENSENELGNVIEELRNLEFETEHNVTN
chain 2: MSRNQDVFPILDLQELVICLQSCDFALATQENISRPTSDYMVTLYKQIIENFMGISVESLLNSSNQETGDGHLQEENENIYLDTLNVLVLNKICFKFFENIGVQDFNMTDLYKPEAQRTQRLLSAVVAYARFREERMFDCNSFILQMESLLGQINKLNDEIKQLQKDFEVEVKEIEIEYSLLSGHINKYMNEMLEYMQ
chain 3: MSQKDNLLDNPVEFLKEVRESFDIQQDVDAMKRIRHDLDVIKEESEARLKLYRSLGVILDLENDQVLINRKNDGNIDILPLDNNLSDFYKTKYIWERLGK
chain 4: MASIDAFSDLERRMDGFQKDVAQVLARQQNHVALYERLLQLRVLPGASDVHDVRFVFGDDSRCWIEVAMHGDHVIGNSHPALDPKSRATLEHVLTVQGDLAAFLVVARDMLLASL
Kd (Bodipy-FL Mps1(137–171)): 7.4 µM

B3: Ndc80c^dwarf, P40460;Q04477;P40014 Nuf2:F8A; Nuf2:P9A (protein)
chain 1: SNARDPRPLRDKNFQSAIQEEIYDYLKKNKFDIETNHPISIKFLKQPTQKGFIIIFKWLYLRLDPGYGFTKSIENEIYQILKNLRYPFLESINKSQISAVGGSNWHKFLGMLHWMVRTNIKLDMCLNKVDRSLINQNTQEITILSQPLKTLDEQDQRQERYELMVEKLLIDYFTESYKSFLKLEDNYEPSMQELKLGFEKFVHIINTDVTSTELKLEELKVDLNRKRYKLHQQVIHVIDITSKFKINIQSSLENSENELGNVIEELRNLEFETEHNVTN
chain 2: MSRNQDVAAILDLQELVICLQSCDFALATQENISRPTSDYMVTLYKQIIENFMGISVESLLNSSNQETGDGHLQEENENIYLDTLNVLVLNKICFKFFENIGVQDFNMTDLYKPEAQRTQRLLSAVVNYARFREERMFDCNSFILQMESLLGQINKLNDEIKQLQKDFEVEVKEIEIEYSLLSGHINKYMNEMLEYMQ
chain 3: MSQKDNLLDNPVEFLKEVRESFDIQQDVDAMKRIRHDLDVIKEESEARLKLYRSLGVILDLENDQVLINRKNDGNIDILPLDNNLSDFYKTKYIWERLGK
chain 4: MASIDAFSDLERRMDGFQKDVAQVLARQQNHVALYERLLQLRVLPGASDVHDVRFVFGDDSRCWIEVAMHGDHVIGNSHPALDPKSRATLEHVLTVQGDLAAFLVVARDMLLASL
Kd (Bodipy-FL Mps1(137–171)): 12.5 µM

RQNMKEDITAKYAEDDSKDFLISNRTTKLGPAKRAC [Mps1 R151D R152D R155D peptide (137–171)]
rise of Ki against the wild-type Mps1 peptide (logs) (Ndc80c^dwarf [3]): 2 logs

RQNMKEDITAKYAERRSKRDAISNRTTKLGPAKSAC [Mps1 (137–171) peptide, unlabeled F156D; L157A; R170S]
response [4]: 76 mP

RQNMKEDITAKYAERRSKRDAISNRTTKLGPAKRAC [Mps1 F156D L157A peptide (137–171)]
rise of Ki against the wild-type Mps1 peptide (logs) (Ndc80c^dwarf [3]): 2 logs

RQNMKEDITAKYAERRSKRFLISNRTTKLGPAKSAC [Mps1 R170S peptide (137–171)]
rise of Ki against the wild-type Mps1 peptide (logs) (Ndc80c^dwarf [3]): 2 logs

RQNMKEDITAKYAERRSKRFLISNRTTKLGPAKRAC(BODIPYFLEthylmaleimide) [Bodipy-FL Mps1(137–171)]
Kd (Ndc80c^dwarf [5]): 0.28 µM
